Measurements: patent US7271143B1, “Peptides for regulation of urokinase (uPA) and tissue type (tPA) plasminogen activator and method of optimizing therapeutic efficacy” (Thrombotech Ltd., priority 2001, dated 2007)
Where two headings read alike, the source gives them in different places.

How the values were obtained:
[1] = in vitro, cited from earlier work
fibrin = target: T1, fibrin (Homo sapiens, UniProt P02671+P02675+P02679); settings: greater than tPA; cited from earlier work
T1 sequence (P02671 20-644 isoform P02671-2 limits assumed): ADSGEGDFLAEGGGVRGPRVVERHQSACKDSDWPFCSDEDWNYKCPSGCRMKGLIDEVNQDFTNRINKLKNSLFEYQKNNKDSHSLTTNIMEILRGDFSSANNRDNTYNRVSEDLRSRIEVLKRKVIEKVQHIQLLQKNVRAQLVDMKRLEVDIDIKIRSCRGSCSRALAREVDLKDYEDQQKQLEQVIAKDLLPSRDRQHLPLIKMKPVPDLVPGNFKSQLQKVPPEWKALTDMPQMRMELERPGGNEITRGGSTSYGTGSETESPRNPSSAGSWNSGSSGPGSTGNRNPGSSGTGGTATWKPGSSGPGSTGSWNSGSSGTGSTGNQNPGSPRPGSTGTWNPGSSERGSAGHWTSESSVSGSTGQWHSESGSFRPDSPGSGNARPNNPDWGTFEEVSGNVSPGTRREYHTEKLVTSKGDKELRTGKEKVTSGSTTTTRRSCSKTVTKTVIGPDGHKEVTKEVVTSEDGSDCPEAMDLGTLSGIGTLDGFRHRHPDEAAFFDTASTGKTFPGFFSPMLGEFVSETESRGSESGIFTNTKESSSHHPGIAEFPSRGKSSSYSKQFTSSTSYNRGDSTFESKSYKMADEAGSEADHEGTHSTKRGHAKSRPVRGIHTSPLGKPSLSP
T1 sequence (P02675 45-491 limits assumed): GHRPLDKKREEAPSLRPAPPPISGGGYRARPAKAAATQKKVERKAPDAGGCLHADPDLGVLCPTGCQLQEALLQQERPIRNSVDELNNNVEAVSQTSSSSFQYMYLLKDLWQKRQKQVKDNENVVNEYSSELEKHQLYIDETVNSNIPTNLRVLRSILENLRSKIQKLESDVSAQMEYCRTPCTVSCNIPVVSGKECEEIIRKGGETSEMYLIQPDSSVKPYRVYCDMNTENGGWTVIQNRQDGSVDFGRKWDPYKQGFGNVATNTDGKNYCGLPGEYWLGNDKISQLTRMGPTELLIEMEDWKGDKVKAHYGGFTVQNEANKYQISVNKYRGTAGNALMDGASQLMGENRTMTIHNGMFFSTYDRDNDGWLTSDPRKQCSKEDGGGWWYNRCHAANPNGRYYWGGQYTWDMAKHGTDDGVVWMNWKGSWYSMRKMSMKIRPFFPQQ
T1 sequence (P02679 27-437 isoform P02679-2 limits assumed): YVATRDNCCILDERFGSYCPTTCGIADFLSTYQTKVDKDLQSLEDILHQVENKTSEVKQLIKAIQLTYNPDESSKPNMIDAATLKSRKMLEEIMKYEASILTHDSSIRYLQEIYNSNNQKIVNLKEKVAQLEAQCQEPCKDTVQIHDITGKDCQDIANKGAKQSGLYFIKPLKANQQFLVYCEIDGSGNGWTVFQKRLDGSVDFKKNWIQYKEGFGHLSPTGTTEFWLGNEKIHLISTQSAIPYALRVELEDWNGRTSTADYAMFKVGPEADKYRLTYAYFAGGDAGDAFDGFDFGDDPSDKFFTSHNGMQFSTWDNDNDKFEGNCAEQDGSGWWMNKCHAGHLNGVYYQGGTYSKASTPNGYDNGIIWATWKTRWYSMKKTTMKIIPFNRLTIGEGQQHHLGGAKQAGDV

[2] = target: plasminogen activator inhibitor-1 (PAI-1) (Homo sapiens, UniProt P05121); settings: higher than tPA; cited from earlier work
Sequence of plasminogen activator inhibitor-1 (PAI-1) (P05121 24-402, species assumed): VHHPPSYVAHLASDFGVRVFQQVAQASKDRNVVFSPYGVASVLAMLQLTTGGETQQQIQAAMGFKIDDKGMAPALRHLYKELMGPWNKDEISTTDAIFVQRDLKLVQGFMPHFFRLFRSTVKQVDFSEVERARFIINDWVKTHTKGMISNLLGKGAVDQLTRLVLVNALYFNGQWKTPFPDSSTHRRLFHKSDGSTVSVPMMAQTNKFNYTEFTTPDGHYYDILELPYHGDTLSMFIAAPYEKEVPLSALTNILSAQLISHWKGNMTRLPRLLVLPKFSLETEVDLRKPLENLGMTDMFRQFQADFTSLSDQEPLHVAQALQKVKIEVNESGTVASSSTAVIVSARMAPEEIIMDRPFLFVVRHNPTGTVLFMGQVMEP

isolated rat aorta rings = test: PE-induced contraction of isolated rat aorta rings; assay type: cell-based
Experimental: FIG. 1A is a diagram describing the results of experiments on the effect of tPA on PE-induced contraction of isolated rat aorta rings. Contraction of aortic rings was induced by increasing the concentrations of phenylephrine (PE), in the absence of tPA (full triangles) or in the presence of 1 nM (filled squares) or 20 nM tPA (empty squares).
FIG. 1B describes the results of experiments in which the contraction of aortic rings was induced in the absence of TNK-tPA (filled triangles), in the presence of 1 nM tPA (filled squares) or 20 nM tPA (empty squares).
FIG. 4 is a graph describing the effect of tPA on phenylepbrine-induced contraction of isolated rat aorta rings in vitro. The contraction of the aorta rings was induced by varying concentrations of phenylephrine in the absence of tPA (filled triangles), in the presence of 1 nM of TA (filled squares) or in the presence of 10 nM tPA (empty squares). The experiments were performed according to procedures described earlier by Haj-Yehia A et al., FASEB J, 2000, 14:1411–1422.
The effect of TNK-tPA on PE-induced contraction was compared with the effect of tPA, in the isolated aorta rings. […]

[3] = cited from earlier work
[4] = rabbits, arterial venous shunt; cited from earlier work

B1: TNK-tPA: bioengineered variant of tissue-type plasminogen activator with tetra-alanine substitution in the protease domain (protein)
chain: SYQVICRDEKTQMIYQQHQSWLRPVLRSNRVEYCWCNSGRAQCHSVPVKSCSEPRCFNGGTCQQALYFSDFVCQCPEGFAGKCCEIDTRATCYEDQGISYRGTWSTAESGAECTNWNSSALAQKPYSGRRPDAIRLGLGNHNYCRNPDRDSKPWCYVFKAGKYSSEFCSTPACSEGNSDCYFGNGSAYRGTHSLTESGASCLPWNSMILIGKVYTAQNPSAQALGLGKHNYCRNPDGDAKPWCHVLKNRRLTWEYCDVPSCSTCGLRQYSQPQFRIKGGLFADIASHPWQAAIFAAAAASPGERFLCGGILISSCWILSAAHCFQERFPPHHLTVILGRTYRVVPGEEEQKFEVEKYIVHKEFDDDTYDNDIALLQLKSDSSRCAQESSVVRTVCLPPADLQLPDWTECELSGYGKHEALSPFYSERLKEAHVRLYPSSRCTSQHLLNRTVTDNMLCAGDTRSGGPQANLHDACQGDSGGPLVCLNDGRMTLVGIISWGLGCGQKDVPGVYTKVTNYLDWIRDNMRP
[1]; platelet-enriched clots
  potency relative to tPA: 13 fold
[1]; whole blood clots
  potency relative to tPA: 8 fold
fibrin
  relative fibrin specificity: 14 fold
[2]
  resistance to PAI-1 relative to tPA: 80 fold
Isolated rat aorta rings; 1 nM
  effect on PE-induced vasoconstriction: stimulated
Isolated rat aorta rings; 20 nM
  effect on PE-induced vasoconstriction: increased its stimulatory effect
[3]; comparative clinical trials
  efficacy compared with rtPA: equivalent efficacy
[3]; in vivo
  non-cerebral bleeding episodes: 4.66%
  rate of intracranial hemorrhage compared with rtPA: similar
[4]
  time required for 50% lysis relative to rtPA: one third
